Reference: the RNAGym collection of RNA variant scans (doi:10.1093/molbev/msab373)

B1: Azoarcus group I ribozyme (parent)
chain: GUGCCUUGCGCCGGGAAACCACGCAAGGGAUGGUGUCAAAUUCGGCGAAACCUAAGCGCCCGCCCGGGCGUAUGGCAACGCCGAGCCAAGCUUCGGCGCCUGCGCCGAUGAAGGUGUAGAGACUAGACGGCACCCACCUAAGGCAAACGCUAUGGUGAAGGCAUAGUCCAGGGAGUGGCGAAAGUCACACAAACCGG

Variants of: B1
Test: reverse-splicing fitness (ratio to wild type); higher = more active; in vitro selection; Mg2+ level not given
Method in brief: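 An in vitro group I ribozyme library with randomized positions was T7-transcribed and gel-purified. In triplicate, 10 pmol RNA in EPPS pH 7.5 was reacted with 50 pmoles of a 30-nt RNA substrate for 1 h at 37 °C across several added MgCl2 levels (1–48 mM), then stopped with EDTA. Products were reverse transcribed from a substrate-complementary primer, PCR-amplified and sequenced (HiSeq 4000). Fitness is a variant's read proportion after selection over that before, normalised to wild type.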

Variant	reverse-splicing fitness
C82U A111U A120C A145C C150G U176C	0.00663
C82U A111U A120C A145C C150G U176A	0.00494
C82U A111U A120C A145C C150G U176G	0.00237
C82U A111U A120C A145C C150G C169A U176C	0.00591
C82U A111U A120C A145C C150G C169A U176G	0.00527
C82U A111U A120C A145C C150G C169A U176A	0.00641
C82U A111G C150U U176G	0.0286
C82U A111G C150U U176C	0.146
C82U A111G C150U U176A	0.102
C82U A111G A145U C169G	0.00731
C82U A111G A145U C169U	0.0102
C82U A111G A145U C169A	0.00645
C82U A111U A120C A145G C150A C169U U176G	0.00615
C82U A111U A120C A145G C150A C169U U176A	0.0148
C82U A111U A120C A145G C150A C169U U176C	0.0167
C82U A111U A120C A145G C169A U176C	0.0232
C82U A111U A120C A145G C169A U176G	0.00456
C82U A111U A120C A145G C169A U176A	0.0202
C82U A111U A120C A145C C150U C169G	0.00639
C82U A111U A120C A145C C150U C169U	0.00899
C82U A111U A120C A145C C150U C169A	0.00709

Variant	reverse-splicing fitness
C82U A111U A120C A145C C150A C169U U176A	0.0149
C82U A111U A120C A145C C150A C169U U176G	0.00541
C82U A111U A120C A145C C150A C169U U176C	0.0112
C82U A111G C150G C169G U176G	0.00525
C82U A111G C150G C169G U176C	0.00418
C82U A111G C150G C169G U176A	0.0075
C82U A111U A120C A145C U176C	0.0132
C82U A111U A120C A145C U176A	0.0125
C82U A111U A120C A145C U176G	0.00539
C82U A111G C150A C169A U176C	0.0195
C82U A111G C150A C169A U176G	0.00533
C82U A111G C150A C169A U176A	0.0183
C82U A111U A120C A145U C150A C169G U176G	0.00527
C82U A111U A120C A145U C150A C169G U176C	0.0124
C82U A111U A120C A145U C150A C169G U176A	0.0124
C82U A111G C150A U176C	0.0361
C82U A111G C150A U176G	0.0117
C82U A111G C150A U176A	0.0272
C82U A111U A120C A145C C169U	0.011
C82U A111U A120C A145C C169G	0.00709
C82U A111U A120C A145C C169A	0.0065

Variant	reverse-splicing fitness
C82U A111U A120C C150A C169A U176A	0.0182
C82U A111U A120C C150A C169A U176C	0.0182
C82U A111U A120C C150A C169A U176G	0.00592
C82U A111G A145U C169A U176C	0.00683
C82U A111G A145U C169A U176G	0.00528
C82U A111G A145U C169A U176A	0.00885
C82U A111G C150G C169A U176A	0.00962
C82U A111G C150G C169A U176C	0.0121
C82U A111G C150G C169A U176G	0.00562
C82U A111G C150U	0.224
C82U A111G C150A	0.0385
C82U A111G C150G	0.0267
C82U A111U A120C C150U C169G U176C	0.0147
C82U A111U A120C C150U C169G U176G	0.00509
C82U A111U A120C C150U C169G U176A	0.0138
C82U A111U A120C A145C C150A C169G U176A	0.0195
C82U A111U A120C A145C C150A C169G U176G	0.00543
C82U A111U A120C A145C C150A C169G U176C	0.0108
C82U A111U A120C A145G C150U C169A	0.00982
C82U A111U A120C A145G C150U C169U	0.0108
C82U A111U A120C A145G C150U C169G	0.00811

Variant	reverse-splicing fitness
C82U A111U A120C A145G C150A	0.0116
C82U A111U A120C A145G C150G	0.00928
C82U A111U A120C A145G C150U	0.0229
C82U A111U A120C A145U C150U C169G U176G	0.00554
C82U A111U A120C A145U C150U C169G U176C	0.0115
C82U A111U A120C A145U C150U C169G U176A	0.011
C82U A111U A120C A145U C169U U176A	0.0155
C82U A111U A120C A145U C169U U176G	0.00395
C82U A111U A120C A145U C169U U176C	0.0136
C82U A111U A120C A145C C150G C169U	0.00848
C82U A111U A120C A145C C150G C169G	0.00637
C82U A111U A120C A145C C150G C169A	0.00832
C82U A111G C150U C169G U176A	0.0191
C82U A111G C150U C169G U176C	0.0162
C82U A111G C150U C169G U176G	0.00558
C82U A111U A120C A145U C150A U176C	0.00963
C82U A111U A120C A145U C150A U176G	0.0048
C82U A111U A120C A145U C150A U176A	0.0115
C82U A111U A120C A145U U176C	0.0165
C82U A111U A120C A145U U176A	0.0127
